In patent US20260109745A1:

Legend:
[1] = target: MUC5AC (NPC-1 antigen, tumor variant) as expressed by human colorectal tumor cell lines (human) (UniProt P98088); experiment: flow cytometry on LS174T colorectal tumor cells
[2] = target: MUC5AC (NPC-1 antigen, tumor variant) as expressed by human colorectal tumor cell lines (human) (UniProt P98088); experiment: flow cytometry on SW480 colorectal tumor cells
[3] = target: MUC5AC (NPC-1 antigen, tumor variant) as expressed by human colorectal tumor cell lines (human) (UniProt P98088); experiment: flow cytometry on Colo-205 colorectal tumor cells
[4] = target: MUC5AC (NPC-1 antigen, tumor variant) as expressed on human pancreatic tumor cell lines (human) (UniProt P98088); experiment: flow cytometry on CFPAC-1 pancreatic tumor cells
Chain of MUC5AC (NPC-1 antigen, tumor variant) as expressed on human pancreatic tumor cell lines (human) (P98088 other isoform, or with tags, fused parts or gaps mutant limits assumed): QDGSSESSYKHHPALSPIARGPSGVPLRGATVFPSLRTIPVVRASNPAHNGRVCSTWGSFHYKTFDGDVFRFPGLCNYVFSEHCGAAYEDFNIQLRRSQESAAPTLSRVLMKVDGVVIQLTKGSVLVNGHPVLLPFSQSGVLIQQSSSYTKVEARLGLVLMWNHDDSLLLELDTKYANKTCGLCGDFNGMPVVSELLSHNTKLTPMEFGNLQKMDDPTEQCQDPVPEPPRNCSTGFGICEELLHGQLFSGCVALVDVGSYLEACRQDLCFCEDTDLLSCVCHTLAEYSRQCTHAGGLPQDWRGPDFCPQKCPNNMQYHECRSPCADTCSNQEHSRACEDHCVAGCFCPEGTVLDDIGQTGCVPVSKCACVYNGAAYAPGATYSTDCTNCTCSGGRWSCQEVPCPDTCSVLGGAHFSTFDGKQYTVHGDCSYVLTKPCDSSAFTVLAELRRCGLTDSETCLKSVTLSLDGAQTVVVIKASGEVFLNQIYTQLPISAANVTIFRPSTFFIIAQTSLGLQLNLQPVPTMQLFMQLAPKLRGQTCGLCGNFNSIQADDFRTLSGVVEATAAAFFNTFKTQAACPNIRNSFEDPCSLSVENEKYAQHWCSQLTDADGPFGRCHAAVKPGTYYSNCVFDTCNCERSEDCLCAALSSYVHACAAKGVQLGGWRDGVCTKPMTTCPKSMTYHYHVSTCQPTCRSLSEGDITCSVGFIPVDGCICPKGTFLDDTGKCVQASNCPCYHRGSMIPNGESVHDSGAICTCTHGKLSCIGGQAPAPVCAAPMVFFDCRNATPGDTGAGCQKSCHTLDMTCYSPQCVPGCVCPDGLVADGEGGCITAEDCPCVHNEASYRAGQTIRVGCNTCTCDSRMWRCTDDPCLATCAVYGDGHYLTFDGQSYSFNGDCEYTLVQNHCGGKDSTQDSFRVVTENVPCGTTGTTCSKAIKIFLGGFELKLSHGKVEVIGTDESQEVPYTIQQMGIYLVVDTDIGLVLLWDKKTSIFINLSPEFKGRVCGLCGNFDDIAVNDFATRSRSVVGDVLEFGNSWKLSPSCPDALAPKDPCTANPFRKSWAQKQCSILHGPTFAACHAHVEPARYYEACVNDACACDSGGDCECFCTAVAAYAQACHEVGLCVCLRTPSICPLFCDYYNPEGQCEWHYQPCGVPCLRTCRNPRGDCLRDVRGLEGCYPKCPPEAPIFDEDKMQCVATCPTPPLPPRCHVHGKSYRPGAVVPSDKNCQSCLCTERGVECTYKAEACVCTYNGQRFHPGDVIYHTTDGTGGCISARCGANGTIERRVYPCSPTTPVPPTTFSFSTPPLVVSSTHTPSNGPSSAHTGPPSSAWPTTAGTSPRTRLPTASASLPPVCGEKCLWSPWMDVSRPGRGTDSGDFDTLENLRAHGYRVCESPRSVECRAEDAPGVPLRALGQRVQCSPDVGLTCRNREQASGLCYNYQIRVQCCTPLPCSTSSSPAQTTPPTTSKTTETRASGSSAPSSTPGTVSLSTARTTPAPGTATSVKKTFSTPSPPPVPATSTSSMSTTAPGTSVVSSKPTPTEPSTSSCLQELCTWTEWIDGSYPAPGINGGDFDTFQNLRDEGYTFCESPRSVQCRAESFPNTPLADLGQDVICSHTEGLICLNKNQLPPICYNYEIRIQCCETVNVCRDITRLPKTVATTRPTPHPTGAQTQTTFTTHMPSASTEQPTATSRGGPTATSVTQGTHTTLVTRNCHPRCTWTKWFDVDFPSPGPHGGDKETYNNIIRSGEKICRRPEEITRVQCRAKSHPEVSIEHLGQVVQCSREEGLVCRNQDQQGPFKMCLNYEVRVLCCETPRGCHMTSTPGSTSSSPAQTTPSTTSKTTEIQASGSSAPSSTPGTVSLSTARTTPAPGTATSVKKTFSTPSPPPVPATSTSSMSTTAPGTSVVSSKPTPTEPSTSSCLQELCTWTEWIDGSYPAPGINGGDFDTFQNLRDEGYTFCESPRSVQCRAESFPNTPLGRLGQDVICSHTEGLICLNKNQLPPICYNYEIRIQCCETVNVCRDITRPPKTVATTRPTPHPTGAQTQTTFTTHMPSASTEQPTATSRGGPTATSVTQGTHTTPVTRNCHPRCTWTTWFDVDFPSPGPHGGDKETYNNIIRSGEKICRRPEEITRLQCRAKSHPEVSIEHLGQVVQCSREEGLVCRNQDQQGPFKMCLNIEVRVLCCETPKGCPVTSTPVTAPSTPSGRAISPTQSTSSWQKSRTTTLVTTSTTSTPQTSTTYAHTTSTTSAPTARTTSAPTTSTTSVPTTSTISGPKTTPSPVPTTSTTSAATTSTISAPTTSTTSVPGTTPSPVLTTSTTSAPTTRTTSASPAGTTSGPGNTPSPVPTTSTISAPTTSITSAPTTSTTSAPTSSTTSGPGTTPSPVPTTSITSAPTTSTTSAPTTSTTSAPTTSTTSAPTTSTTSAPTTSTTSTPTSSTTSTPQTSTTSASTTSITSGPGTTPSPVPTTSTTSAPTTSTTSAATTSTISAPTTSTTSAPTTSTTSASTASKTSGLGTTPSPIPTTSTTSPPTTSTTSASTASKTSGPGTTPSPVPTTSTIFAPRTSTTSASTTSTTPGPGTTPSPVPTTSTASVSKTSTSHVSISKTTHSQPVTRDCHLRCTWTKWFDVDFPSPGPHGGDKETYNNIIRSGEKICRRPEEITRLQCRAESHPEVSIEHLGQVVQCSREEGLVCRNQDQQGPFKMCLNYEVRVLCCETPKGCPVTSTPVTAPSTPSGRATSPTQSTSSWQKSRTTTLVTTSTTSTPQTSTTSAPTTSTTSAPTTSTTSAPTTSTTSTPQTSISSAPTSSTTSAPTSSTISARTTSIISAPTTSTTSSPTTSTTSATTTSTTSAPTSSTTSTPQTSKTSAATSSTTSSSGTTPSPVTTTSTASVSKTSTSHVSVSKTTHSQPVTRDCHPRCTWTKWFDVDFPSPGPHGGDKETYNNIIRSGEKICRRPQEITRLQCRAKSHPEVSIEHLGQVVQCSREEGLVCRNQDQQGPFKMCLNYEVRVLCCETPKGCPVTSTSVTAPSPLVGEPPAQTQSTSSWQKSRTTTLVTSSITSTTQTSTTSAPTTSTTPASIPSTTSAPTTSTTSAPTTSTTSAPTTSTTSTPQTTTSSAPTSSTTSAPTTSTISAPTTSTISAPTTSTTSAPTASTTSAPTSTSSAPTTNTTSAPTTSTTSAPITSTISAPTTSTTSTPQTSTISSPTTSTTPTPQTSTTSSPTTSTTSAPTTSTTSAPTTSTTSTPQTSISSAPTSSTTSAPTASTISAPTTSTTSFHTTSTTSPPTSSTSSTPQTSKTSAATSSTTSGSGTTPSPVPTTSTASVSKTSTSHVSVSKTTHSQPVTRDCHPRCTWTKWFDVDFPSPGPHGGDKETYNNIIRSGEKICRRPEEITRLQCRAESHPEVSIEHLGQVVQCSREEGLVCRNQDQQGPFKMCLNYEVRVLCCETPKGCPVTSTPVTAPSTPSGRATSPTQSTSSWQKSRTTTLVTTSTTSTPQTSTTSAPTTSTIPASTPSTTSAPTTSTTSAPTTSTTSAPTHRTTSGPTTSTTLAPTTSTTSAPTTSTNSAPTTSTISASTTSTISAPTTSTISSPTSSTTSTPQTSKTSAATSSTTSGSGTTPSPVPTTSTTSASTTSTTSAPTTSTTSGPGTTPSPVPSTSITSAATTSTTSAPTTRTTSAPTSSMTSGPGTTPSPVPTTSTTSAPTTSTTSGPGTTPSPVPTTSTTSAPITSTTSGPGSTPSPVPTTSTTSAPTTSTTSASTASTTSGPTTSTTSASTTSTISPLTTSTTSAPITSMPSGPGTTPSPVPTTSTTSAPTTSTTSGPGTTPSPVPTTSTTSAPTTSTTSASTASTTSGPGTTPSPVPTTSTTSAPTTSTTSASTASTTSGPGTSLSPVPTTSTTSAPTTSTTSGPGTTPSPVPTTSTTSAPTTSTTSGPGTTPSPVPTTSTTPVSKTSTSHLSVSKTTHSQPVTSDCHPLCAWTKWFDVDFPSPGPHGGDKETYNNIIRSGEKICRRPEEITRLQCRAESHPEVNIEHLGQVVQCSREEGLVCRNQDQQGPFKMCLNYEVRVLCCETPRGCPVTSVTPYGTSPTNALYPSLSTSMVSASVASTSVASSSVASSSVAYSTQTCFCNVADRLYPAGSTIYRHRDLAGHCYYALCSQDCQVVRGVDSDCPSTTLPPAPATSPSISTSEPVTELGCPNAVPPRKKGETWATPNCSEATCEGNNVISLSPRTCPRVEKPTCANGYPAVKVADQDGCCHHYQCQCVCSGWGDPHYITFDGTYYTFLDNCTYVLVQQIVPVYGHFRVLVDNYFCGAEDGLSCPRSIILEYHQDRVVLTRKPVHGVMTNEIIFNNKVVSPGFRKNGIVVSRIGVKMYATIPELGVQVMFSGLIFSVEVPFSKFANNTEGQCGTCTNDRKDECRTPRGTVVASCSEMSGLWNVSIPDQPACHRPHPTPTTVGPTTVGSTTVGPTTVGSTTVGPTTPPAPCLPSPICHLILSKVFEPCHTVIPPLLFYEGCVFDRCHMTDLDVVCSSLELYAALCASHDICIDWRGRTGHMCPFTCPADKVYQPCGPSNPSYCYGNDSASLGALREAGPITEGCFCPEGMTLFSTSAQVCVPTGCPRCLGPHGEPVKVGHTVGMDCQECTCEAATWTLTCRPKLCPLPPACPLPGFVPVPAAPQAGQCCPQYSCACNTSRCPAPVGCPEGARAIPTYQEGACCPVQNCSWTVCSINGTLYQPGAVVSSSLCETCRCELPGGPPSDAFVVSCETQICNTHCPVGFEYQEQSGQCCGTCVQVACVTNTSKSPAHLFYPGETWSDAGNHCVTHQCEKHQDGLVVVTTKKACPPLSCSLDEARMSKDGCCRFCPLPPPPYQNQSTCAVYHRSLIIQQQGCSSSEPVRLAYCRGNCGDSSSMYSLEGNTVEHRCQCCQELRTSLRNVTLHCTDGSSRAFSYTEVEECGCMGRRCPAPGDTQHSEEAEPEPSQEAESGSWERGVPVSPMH

[5] = target: MUC5AC (NPC-1 antigen, tumor variant) as expressed on human pancreatic tumor cell lines (human) (UniProt P98088); experiment: immunofluorescence on fixed, permeabilized CFPAC-1 cells, 2 ug/ml

Chain of MUC5AC (NPC-1 antigen, tumor variant) as expressed by human colorectal tumor cell lines (human) (P98088 other isoform, or with tags, fused parts or gaps mutant limits assumed): as above

Substance | % Cells Stained [1] | % Cells Stained [2] | % Cells Stained [3] | % Cells Stained [4] | % of cells stained [5]
Isotype control antibody | 3.85% | 3.38% | 2.33% | 1.79% | 
Polyclonal rabbit anti-MUC5AC antibody (H-160) (Santa Cruz Biotechnology Inc.) |  |  |  |  | 100%
